Assay results from PMC8939767 (2022).

Key:
Test in all cases: BLI
[1] = target: T1, HCoV-HKU1 soluble spike ectodomain protein (HCoV-HKU1, UniProt Q5MQD0 13-1300)
T1 chain: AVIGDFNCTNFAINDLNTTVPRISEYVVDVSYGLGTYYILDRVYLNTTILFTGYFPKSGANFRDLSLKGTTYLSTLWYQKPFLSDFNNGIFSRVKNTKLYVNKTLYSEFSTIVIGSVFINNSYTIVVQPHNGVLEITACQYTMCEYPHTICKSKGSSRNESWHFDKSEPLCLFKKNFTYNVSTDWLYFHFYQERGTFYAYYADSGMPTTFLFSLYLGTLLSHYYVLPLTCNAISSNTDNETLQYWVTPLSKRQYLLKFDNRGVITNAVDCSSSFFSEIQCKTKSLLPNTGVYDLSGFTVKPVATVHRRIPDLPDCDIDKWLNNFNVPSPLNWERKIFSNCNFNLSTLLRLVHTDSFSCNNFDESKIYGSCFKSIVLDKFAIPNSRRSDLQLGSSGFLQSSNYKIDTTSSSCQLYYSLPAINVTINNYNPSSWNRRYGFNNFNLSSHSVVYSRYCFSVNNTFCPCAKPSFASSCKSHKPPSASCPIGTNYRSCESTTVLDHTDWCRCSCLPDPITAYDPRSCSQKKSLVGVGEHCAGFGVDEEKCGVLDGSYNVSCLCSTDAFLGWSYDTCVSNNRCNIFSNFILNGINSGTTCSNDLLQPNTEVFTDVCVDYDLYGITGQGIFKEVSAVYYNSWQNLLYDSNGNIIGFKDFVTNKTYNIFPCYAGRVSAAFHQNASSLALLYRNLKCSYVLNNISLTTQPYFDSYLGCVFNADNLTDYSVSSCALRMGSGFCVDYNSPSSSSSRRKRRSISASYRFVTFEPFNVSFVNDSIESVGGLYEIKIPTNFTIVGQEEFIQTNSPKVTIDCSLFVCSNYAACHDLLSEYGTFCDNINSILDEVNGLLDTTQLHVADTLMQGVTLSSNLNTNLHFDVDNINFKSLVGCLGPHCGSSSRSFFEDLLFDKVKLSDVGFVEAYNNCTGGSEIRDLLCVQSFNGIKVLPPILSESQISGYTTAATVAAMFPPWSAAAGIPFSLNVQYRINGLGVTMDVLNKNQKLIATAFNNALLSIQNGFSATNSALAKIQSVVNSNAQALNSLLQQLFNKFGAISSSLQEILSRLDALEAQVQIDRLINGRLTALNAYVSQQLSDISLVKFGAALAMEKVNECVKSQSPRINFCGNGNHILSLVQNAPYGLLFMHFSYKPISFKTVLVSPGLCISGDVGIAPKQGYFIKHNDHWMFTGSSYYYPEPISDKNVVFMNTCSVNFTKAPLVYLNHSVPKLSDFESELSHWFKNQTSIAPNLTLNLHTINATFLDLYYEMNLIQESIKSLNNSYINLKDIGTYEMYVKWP

[2] = target: HCoV-OC43 soluble spike protein
[3] = target: SARS-CoV-2 soluble spike protein
[4] = target: SARS-CoV-1 soluble spike protein

B1: CC40.8 broadly neutralizing antibody (IgG) (antibody, V domains shown)
VH: EVQLLESGGGLVQPGGSLRLSCAASGFTFSSYVMTWARQAPGKGLEWVSAISGTGYTYYADSVKGRFTVSRDNSKNTLFLQMSSLRAEDTAVYYCAITMAPVVWGQGTTVTVSS
VL: SYELTQPPSVSVSPGQTARITCSGDALPKRYAYWYQQKSGQAPILVIYEDKKRPSGIPERLSGSKSGTVATLTISGAQVEDEADYYCYSTDSSGNHAVFGGGTQLTVL
- Kd [1]: < 1 pM
- Kd [2]: ~10000 pM
- Kd [3]: < 1 pM
- Kd [4]: < 1 pM
